B1: 10B6: rat anti-mouse endotrophin monoclonal antibody; light chain variable SEQ ID NO: 2, heavy chain variable SEQ ID NO: 4 (antibody, V domains shown)
VH: QVQLQQSGPELAKPGSSVKISCKASGYTFTSYEMHWIKQRPGQGLEWIGYIYPESGSTGYNEKFKGKATLTVDKSSPTAYMQLSSLTPDNSAVYFCTRGLRVLGYVMDVWGHGTSVTVSS
VL: DVQLTQSPSFLSASVGDRVTINCKASQNINKYLNWYQQKLGEAPKRLIYNTNNLQTGIPSRFSGSASGTDYTLTISSLHPEDFATYFCLQHSSLYTFGAGTKLELK

Tests used:
PyMT/endotrophin mice = assay: high dosage cisplatin in PyMT/endotrophin mice; format: in vivo, mouse; conditions: cisplatin 2.5 mg/kg, ip. twice a week
Protocol: (§1) FIGS. 20A-20C. Endotrophin overexpression confers cisplatin resistance in PyMT mice. FIG. 20A. 10-weeks-aged PyMT and PyMT/endotrophin (PyMT/ETP) mice were given high dosage of cisplatin (2.5 mg/kg, ip., 2 times/week). Tumor growth was determined by caliper measurements. Data represent mean±SD (n=7-10/group). ***p<0.001, PyMT/CIS vs. PyMT/ETP/CIS by 2-way ANOVA. FIGS. 20B-20C. A piece of tumors taken from PyMT (Ctrl-tumor) and PyMT/endotrophin (ETP^+-tumor) mice were implanted into isogenic wild-type hosts. Cisplatin (1 mg/kg, ip., 2 times/week) were injected at 3-weeks post implantation for tumor progression. Tumor volume was determined by caliper measurement. […] Data represent mean±SD (n=7-8/group). *p<0.05 vs. Ctrl-tumors by 2-way ANOVA. Representative images were taken at 70-days post implantation. Scale: 10 mm.

PyMT mice [1] = assay: high dosage cisplatin in PyMT mice; format: in vivo, mouse; conditions: cisplatin 2.5 mg/kg, ip. twice a week
Protocol: as §1

PyMT mice [2] = assay: TZD and cisplatin treatment of FP635/PyMT (PyMT) mice; format: in vivo, mouse
Protocol: FIGS. 19A-19F. TZD augments cisplatin sensitivity and correlates with the COL6A3 levels. FIG. 19A. FP635/PyMT mice were given TZD containing chow (supply approx. 20 mg/kg/day, rosiglitazone) or normal-diet (ND) starting at 8-weeks of age, and cisplatin (1 mg/kg) or PBS treatment was initiated at 10 weeks of age (ip., 3 times/week) over the course of tumor progression. Tumor burden was monitored with a fluorescence scanner (IVIS, Caliper life science). Quantified results are represented as mean±SD (n=8-9/group). *p=0.04, ND/CIS vs. TZD/CIS by unpaired student t-test. Metastatic burden was determined by fluorescence signals in lung tissues. FIG. 19B. Primary cancer cells isolated from tumors in PyMT mice were implanted into WT mice. TZD were given 5 days prior to cisplatin treatment (1 mg/kg, every 5 days). Tumor volumes were determined by caliper measurement and represented as mean±SD (n=5-6/group). *p<0.05 and **p<0.001, ND/CIS vs. TZD/CIS by 2-way ANOVA. FIGS. 19C-19D. Total RNA was extracted from tumor tissues in each group. mRNA levels for collagens such as COL1A1, COL6A1, -A2, and -A3 (FIG. 19C), and EMT genes such as E-cadherin, N-cadherin, Vimentin, Snail, Slug, Twist1 and Twist2 (FIG. 19D) were determined by qRT-PCR and normalized with 36B4. Quantitative results represent mean±SD (n=7/group). *p<0.05, **p<0.01, ***p<0.001 ND/PBS vs. ND/CIS; ^###p<0.001 ND/CIS vs. TZD/CIS by 2-way ANOVA. FIGS. 19E-19F. EMT indices were determined by immunostaining with E-Cadherin (FIG. 19E) and Vimentin (FIG. 19F). Cytokeratin (epithelial cells) and DAPI (nucleus) were co-stained. Staining positive area was quantified (multiple images, n=5/group). **p=0.014 (E) and *p=0.015 (F), ND/CIS vs. TZD/CIS by unpaired student t-test. Scale bars: 100 μm.
FIGS. 23A-23B: TZD confers beneficial effects on cisplatin treatment in mammary tumors. Met-1 cancer cells (0.5×10^6 cells/mouse) were implanted into wild-type mice and TZD (20 mg/kg) was given by diet and cisplatin (1 mg/kg) was intraperitoneally (ip.) injected every 5 days from 30 days post implantation (n=8/group). ***p<0.001 vs. ND by 2-way ANOVA. Tumor tissues from PyMT mice given TZD or normal diet (ND) diet were histologically assessed. […] Data represent mean±SD (n=5/group). **p=0.0042 ND vs. TZD by unpaired student t-test. Scales: 50 μm. […] Data represent mean±SD (n=5/group). *p=0.002 ND vs. TZD by unpaired student t-test. Arrows indicate staining positive cells. Scales: 25 μm.
Cisplatin (sigma, 479306) was diluted to 1 mg/ml in PBS and was sonicated briefly before injection. […]
Infrared fluorescence expressing MMTV-PyMT mice (FP635/PyMT) were imaged by IVIS scanner (Caliper lifesciences) and signal intensity was analyzed with Living image v.3.2 (Caliper lifesciences).

MS-1 cells = assay: in vitro angiogenesis assay (tubule formation on Matrigel); format: cell-based, mouse; conditions: 10B6 10 μg/well, 3 hours
Protocol: FIGS. 17A-17B. Endotrophin effects on endothelial cell migration. FIG. 17A. in vivo Matrigel bioassays were performed as described in FIG. 6J. Matrigel plugs were analyzed by H&E and immunostaining for CD31 (endothelial cell marker). Scale bars: 200 μm (H&E), and 50 μm (CD31). FIG. 17B. in vitro Angiogenesis assay. MS-1 cells (5×10^4 cells/well) were plated in triplicate on the matrigel coated 12-well plates. Tubule formation was assessed 3 hours after incubation with conditioned media derived from H293 or H293-endotrophin overexpressing cells in the presence or absence of 10B6 (10 μg/well). Scale bars: 500 μm.
A total 300 μl/well of growth factor reduced matrigel (BD biosciences) was plated into 12 well plates. MS-1 cells (5×10^4) were seeded and images were acquired 3-4 hours after incubation with the conditioned media indicated.

[3] = test system: diet induced obese (DIO) mice; assay: diet induced obese mice, serum and hepatic lipid parameters; format: in vivo, mouse
Protocol: FIGS. 26A-26G: Endotrophin neutralization improves the metabolic phenotype. FIG. 26A. Two cohorts of mice (n=8) were exposed to high fat diet for 45 days after weaning. At the indicated time points (arrowheads), mice were treated with anti-endotrophin monoclonal antibodies (100 µg/mouse) or equivalent amounts of non-immune antibody. Body weights were monitored. FIG. 26B. Plasma Triglycerides and FIG. 26C. plasma free fatty acids (NEFAs) and FIG. 26D. plasma cholesterol were measured. FIG. 26E. Hepatic triglycerides and FIG. 26F. hepatic cholesterol were measured. Significant differences as indicated by unpaired student t-test. FIG. 26G. […] Scale bar=25 μm.
To evaluate the therapeutic potential of endotrophin neutralizing monoclonal antibodies on lipid parameters, a separate cohort of diet induced obese (DIO) mice were chronically treated with either IgG control or 10B6 (rat anti-mouse endotrophin monoclonal antibody) via intraperitoneal injection at 2 weeks after high-fat diet (HFD) challenge and maintained them on a HFD with antibody treatment for another 4 weeks, similar to the experiment described in FIG. 24.

Molecule | response of PyMT/endotrophin mice to cisplatin treatment (PyMT/endotrophin mice) | primary tumor growth of PyMT mice (PyMT mice [1]) | EMT in tumor tissues (loss of E-cadherin or increase in vimentin) (PyMT mice [2]; immunostaining) | metallothionein (MT) levels in tumor tissues (PyMT mice [2]; immunostaining) | mRNA levels of COL6A3 in tumor tissues (PyMT mice [2]; qRT-PCR) | mRNA levels for EMT transcription factors (Snail, Slug, Twist1) (PyMT mice [2]; qRT-PCR, tumor tissues) | vasculature structure (tubule) formation induced by conditioned media from ETP-overexpressing HEK-293T cells (MS-1 cells) | hepatic cholesterol levels ([3]; 10B6 vs IgG) | levels of hepatic triglycerides ([3]; 10B6 vs IgG) | levels of serum triglyceride ([3]; 10B6 vs IgG) | serum cholesterol levels ([3]; 10B6 vs IgG) | serum free fatty acids ([3]; 10B6 vs IgG) | hepatic lipid accumulation ([3]; H&E stains, 10B6 vs IgG control)
N.N.[Cl][Pt][Cl] [cisplatin, cis-diammine-dichloro-platinum] | resistant | effectively curbed | significant increase | significantly increased | significantly increased | significantly increased |  |  |  |  |  |  | 
B1 |  |  |  |  |  |  | completely blocked | comparable | improved | dramatically improved | less affected | dramatically improved | significantly reduced
